One test concerns the target CD4:Fc (human) (UniProt P01730). The test can be described thus: SPR, BIAcore2000, CD4:Fc immobilized by amine coupling, MAb flowed.
In test [1] the target is T1, Human CD152 Mu-Ig fusion (Ancel # 501-820) (human, UniProt P16410 36-161).
T1 construct: Bought reagent; coated on ELISA plates at 0.2 ug/ml for hybridoma screening; also called CTLA-4; not shown: murine Ig part of the bought fusion, not described
T1 sequence (looked up): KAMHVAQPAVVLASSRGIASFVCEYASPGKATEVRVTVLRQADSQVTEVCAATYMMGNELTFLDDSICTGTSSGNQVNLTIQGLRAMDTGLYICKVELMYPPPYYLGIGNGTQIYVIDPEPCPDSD
The experiment in a line: ELISA of hybridoma supernatant on coated human CD152 mu-Ig fusion (assay taken from paragraph 247; the table does not explain OD).

In the test with CD4:Fc (human), “murine anti-CD4 MAb, Leu3a (Pharmingen) (antibody)” registered a Ka of 3.1e+10 M⁻¹, a koff of 7.1e-06 s⁻¹ and a kon of 220000 M⁻¹ s⁻¹.

B1: 9C4 (antibody, V domains shown)
VH: QVQLVESGGGVVEPGRSLRLSCAASGFTFSSYGMHWVRQAPGKGLEWVAVIWYKSSEKDYADSAKGRFTISRDNSKNTLYLQMNSLRAEDTAVYYCARAGLLGYFDYWGQGTLVTVSS
VL: EIVLTQSPGTLSLSPGERATLSCRASQSLNSYLAWYQQKPGQAPRPLIYGVSSRATGIPDRFSGSGSGTDFTLTISRLEPEDFAVYYCQQYGIYPFTFGPGTKVDIK
B1 displayed an OD in test [1] of 1.3 OD.

B2: 1H5 (antibody, V domains shown)
VH: QLQLQESGPGLVKPSETLSLTCTVSGGSISNSNYYWGWIRQPPGKELEWIGSIYYTGNTYYNPSLKSRVTVSVDTSRNQFSLNLNSVIAADTAVYSCARHGFTISWSLDVWGQGTTVTVSS
VL: AIQLTQSPSSLSASVGDRVTITCRASQGISSALAWYQQKPGKAPKLLIYDASSLESGVPSRFSGSGSGTDFTLTISSLQPEDFATYYCQQFNSYLLTFGGGTKVEIK
B2 came in with an OD in test [1] of 1.39 OD.

The record behind these values is US20020199213A1 (Kyowa Kirin, published 2002).
